# Starred links: 1 amine or outer side, 2 acyl side, 3 side chain; linkers in the order of their positions; H or OH if unused. Positions of bridges follow the written chain, without caps; N, C: chain ends. Non-standard residues stand in square brackets, D forms with d. Primed or numbered codes have the meaning given here. PyrS2″ = (S)-3-amino-1-((pent-4-en-1-yloxy)carbonyl)pyrrolidine-3-carboxylic acid (stapling residue), C=CCCCOC(=O)N1CC[C@@](N[*:1])(C(=O)[*:2])C1; B5(16) = 2-amino-2-(pent-4-en-1-yl)hept-6-enoic acid = 2,2-bis(4-pentenyl)glycine (stitching residue), C=CCCCC(CCCC=C)(N[*:1])C(=O)[*:2]; B5(21) = 2-amino-2-(pent-4-en-1-yl)hept-6-enoic acid, bis(4-pentenyl)glycine (stitching residue), C=CCCCC(CCCC=C)(N[*:1])C(=O)[*:2]; B5(3) = 2,2-bis(4-pentenyl)glycine (stitching residue), C=CCCCC(CCCC=C)(N[*:1])C(=O)[*:2]; Bta = N[C@@H](Cc1csc2ccccc12)C(=O)O; αAllylPro = C=CC[C@@]1(C(=O)O)CCCN1; tBuAla = CC(C)(C)C[C@H](N)C(=O)O; 3Thi = N[C@@H](Cc1ccsc1)C(=O)O; Cha = N[C@@H](CC1CCCCC1)C(=O)O; S8 = C=CCCCCCC[C@](C)(N)C(=O)O
# T1: beta-catenin in DLD1 TCF/LEF luciferase reporter cells (UniProt P35222 1-781)
# T1 sequence (looked up): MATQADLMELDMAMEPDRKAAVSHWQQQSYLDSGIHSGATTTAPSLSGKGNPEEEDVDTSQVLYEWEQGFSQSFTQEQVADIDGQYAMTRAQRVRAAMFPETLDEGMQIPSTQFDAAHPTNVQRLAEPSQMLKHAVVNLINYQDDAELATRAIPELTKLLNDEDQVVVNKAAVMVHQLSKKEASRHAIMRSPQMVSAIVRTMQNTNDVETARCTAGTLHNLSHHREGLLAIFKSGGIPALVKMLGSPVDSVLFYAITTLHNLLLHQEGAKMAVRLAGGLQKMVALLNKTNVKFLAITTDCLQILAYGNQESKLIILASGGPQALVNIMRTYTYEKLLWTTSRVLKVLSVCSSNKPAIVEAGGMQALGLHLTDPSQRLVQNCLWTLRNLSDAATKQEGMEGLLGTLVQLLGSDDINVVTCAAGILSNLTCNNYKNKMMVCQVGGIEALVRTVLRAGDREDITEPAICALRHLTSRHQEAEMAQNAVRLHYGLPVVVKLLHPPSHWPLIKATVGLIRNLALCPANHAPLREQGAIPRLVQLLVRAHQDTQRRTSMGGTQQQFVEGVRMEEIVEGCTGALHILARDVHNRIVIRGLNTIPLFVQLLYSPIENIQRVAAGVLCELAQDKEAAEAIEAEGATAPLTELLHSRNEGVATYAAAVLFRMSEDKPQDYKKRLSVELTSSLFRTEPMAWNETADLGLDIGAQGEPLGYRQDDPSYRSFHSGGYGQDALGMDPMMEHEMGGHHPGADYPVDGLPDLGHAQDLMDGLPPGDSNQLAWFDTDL
# T2: B-cat-Halo (beta-catenin HaloTag NanoBRET construct expressed in HEK293 cells) (UniProt P35222 1-781)
# T2 sequence (looked up): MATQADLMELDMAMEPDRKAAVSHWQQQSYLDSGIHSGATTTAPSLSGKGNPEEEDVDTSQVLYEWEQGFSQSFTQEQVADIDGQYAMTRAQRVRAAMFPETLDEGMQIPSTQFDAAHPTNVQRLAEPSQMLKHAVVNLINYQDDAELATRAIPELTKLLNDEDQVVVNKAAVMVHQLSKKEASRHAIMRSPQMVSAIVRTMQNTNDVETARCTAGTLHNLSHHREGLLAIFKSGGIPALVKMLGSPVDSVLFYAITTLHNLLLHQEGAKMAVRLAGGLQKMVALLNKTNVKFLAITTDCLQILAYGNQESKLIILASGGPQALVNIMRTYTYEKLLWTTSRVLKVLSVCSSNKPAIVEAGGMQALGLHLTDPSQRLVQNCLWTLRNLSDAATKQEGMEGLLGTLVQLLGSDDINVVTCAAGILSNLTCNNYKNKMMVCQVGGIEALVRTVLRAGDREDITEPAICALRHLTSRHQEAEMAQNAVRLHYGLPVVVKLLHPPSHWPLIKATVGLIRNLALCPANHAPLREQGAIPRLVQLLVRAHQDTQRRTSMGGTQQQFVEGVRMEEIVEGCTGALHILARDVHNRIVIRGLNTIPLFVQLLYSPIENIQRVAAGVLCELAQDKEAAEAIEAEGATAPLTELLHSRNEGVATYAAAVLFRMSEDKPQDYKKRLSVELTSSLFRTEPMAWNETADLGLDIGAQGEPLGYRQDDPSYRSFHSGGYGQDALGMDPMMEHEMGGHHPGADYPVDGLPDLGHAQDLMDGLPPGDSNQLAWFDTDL
# T3: full-length beta-Catenin (Uniprot ID P35222) (Homo sapiens (Human), UniProt P35222 1-781)
# T3 construct: also called bCat; B-Catenin
# T3 sequence: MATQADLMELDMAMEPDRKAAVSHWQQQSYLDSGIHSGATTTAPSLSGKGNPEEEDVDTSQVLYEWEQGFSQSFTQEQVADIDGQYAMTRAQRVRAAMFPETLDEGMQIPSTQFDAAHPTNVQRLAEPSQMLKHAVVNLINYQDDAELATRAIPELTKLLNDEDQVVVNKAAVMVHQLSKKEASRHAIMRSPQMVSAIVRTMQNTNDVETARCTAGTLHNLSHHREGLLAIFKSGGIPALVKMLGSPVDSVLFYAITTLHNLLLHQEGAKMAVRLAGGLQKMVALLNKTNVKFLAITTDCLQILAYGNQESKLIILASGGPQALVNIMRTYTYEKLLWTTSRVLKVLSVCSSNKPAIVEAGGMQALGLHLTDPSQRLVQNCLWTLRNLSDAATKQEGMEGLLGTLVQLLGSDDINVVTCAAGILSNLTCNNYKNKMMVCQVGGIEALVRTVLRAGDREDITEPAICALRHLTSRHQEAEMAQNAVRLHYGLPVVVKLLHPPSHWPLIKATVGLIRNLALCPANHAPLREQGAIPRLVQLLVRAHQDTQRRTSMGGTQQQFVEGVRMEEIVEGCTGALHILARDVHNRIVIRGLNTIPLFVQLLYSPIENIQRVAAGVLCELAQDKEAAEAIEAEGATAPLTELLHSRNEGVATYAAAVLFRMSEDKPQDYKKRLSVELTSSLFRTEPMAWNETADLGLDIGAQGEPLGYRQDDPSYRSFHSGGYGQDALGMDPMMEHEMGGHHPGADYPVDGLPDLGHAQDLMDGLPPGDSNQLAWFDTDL
# T4: B-cat-Halo (UniProt P35222 1-781)
# T4 sequence (looked up): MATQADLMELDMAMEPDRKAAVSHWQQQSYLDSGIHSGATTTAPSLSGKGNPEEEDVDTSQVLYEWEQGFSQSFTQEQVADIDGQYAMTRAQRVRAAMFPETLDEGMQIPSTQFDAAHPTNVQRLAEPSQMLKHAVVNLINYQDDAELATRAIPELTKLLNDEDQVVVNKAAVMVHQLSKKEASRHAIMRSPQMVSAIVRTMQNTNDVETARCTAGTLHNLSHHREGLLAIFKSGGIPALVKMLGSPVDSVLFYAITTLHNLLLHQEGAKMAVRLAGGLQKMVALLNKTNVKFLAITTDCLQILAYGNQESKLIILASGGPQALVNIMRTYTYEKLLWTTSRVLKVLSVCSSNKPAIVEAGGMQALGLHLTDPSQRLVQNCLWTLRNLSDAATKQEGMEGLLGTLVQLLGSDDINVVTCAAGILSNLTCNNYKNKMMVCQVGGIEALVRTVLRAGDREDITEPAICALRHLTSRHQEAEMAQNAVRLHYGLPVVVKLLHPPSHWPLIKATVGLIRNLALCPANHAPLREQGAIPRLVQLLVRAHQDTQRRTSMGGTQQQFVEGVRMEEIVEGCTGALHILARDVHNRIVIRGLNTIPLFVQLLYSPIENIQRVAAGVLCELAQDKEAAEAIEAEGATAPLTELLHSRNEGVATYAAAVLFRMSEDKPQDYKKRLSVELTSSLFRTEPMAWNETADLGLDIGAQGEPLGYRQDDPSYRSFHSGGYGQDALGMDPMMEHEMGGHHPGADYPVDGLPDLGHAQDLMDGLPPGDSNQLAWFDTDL
# T5: B-cat-Halo (beta-catenin HaloTag fusion expressed in HEK293 cells) (UniProt P35222 1-781)
# T5 sequence (looked up): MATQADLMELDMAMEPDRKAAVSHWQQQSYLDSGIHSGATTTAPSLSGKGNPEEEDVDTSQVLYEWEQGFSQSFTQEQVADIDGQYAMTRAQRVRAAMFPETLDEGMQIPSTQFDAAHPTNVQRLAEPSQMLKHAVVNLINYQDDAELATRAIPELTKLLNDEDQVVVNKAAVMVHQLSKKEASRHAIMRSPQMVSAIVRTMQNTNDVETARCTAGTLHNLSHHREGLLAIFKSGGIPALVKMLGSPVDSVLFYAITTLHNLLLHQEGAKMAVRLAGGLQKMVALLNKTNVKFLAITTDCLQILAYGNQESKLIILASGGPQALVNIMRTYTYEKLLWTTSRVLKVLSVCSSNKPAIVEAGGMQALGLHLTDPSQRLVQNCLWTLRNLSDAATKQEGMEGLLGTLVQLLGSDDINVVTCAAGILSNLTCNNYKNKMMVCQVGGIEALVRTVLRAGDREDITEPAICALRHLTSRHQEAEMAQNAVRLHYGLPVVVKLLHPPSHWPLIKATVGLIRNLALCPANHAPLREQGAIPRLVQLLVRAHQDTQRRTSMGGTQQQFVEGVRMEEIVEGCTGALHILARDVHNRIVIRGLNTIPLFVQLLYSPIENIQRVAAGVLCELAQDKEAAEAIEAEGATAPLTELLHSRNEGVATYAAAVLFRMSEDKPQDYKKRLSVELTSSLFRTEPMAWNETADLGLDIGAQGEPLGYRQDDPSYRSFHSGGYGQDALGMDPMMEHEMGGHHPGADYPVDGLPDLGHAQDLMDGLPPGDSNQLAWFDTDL
# Columns and labels:
# [1] = molecular target: T1, beta-catenin in DLD1 TCF/LEF luciferase …; assay: cell-based or functional assay
# [2] = molecular target: T2, B-cat-Halo (beta-catenin HaloTag …); assay: cell-based or functional assay
# [3] = molecular target: T3, full-length beta-Catenin (Uniprot ID …); assay: fluorescence polarization competition; displacement of 5FAM-TCF4(10-53) from full-length beta-catenin
# How it was run: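 Plate incubated 60 minutes at 20° C. protected from light before reading. Concentrations given are final.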
# B-cat-Halo = molecular target: T4, B-cat-Halo; assay: cell-based or functional assay
# [4] = molecular target: T5, B-cat-Halo (beta-catenin HaloTag fusion …); assay: cell-based or functional assay
binder,measurement,setting,value
"Ac-[αAllylPro]D[tBuAla][B5(3)]DDAAFF[PyrS2″][3Thi][Bta]Q-NH2 (staple 1-4, 4-11) [I-807]",DLD1 reporter assay Abs IC50,[1],3.4 µM
"Ac-[αAllylPro]DA[B5(21)]DEAAFN[PyrS2″]F[Bta]Q-NH2 (staple 1-4, 4-11) [I-462]",NanoBRET Abs IC50,[2],> 20 µM
"XDVXDDAAFNXFXQ (not fully specified; Ac-PL3-Asp-Val-B5-Asp-Asp-Ala-Ala-Phe-Asn-S8-Phe-BztA-Gln-NH2; N-terminal acetyl, C-terminal amide; non-natural: PL3(1), B5(4), S8(11), BztA(13); staples PL3(1)-B5(4) and B5(4)-S8(11)) [I-567]",EC50,[3],37 nM
same,NanoBRET % inh @ 10 uM,B-cat-Halo,8.9%
"Ac-[αAllylPro]D[Cha][B5(16)]DEAAFN[S8]F[Bta]Q-NH2 (staple 1-4, 4-11; also: later-eluting staple isomer composition) [I-620]",NanoBRET IC50,[4],5.8 µM
